In publication doi:10.1101/695155:

Target: p35 (UniProt Q15078)
Test: co-IP

UniProt Q15078, sequence (Q15078 whole entry): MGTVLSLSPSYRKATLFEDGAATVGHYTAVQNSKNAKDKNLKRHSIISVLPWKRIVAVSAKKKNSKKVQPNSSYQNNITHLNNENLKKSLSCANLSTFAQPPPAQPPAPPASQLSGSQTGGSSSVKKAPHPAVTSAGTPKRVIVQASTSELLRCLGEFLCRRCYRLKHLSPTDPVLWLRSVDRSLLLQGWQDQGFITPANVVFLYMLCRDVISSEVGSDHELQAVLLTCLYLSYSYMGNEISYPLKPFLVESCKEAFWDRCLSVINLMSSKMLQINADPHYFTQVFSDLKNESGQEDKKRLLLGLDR

- cdk5 recovered by anti-p35 IP with nestin co-expressed, normalised to no nestin: 1.12
Substance: HA-CDK5-DN (D145N) (from UniProt Q00535 1-292) (enzyme)
